# Experimental data as given in PMC10460399 (Nature Communications, 2023).
# Values joined by “and” are separate entries in the source; they are usually repeats but may differ in a detail not shown here. Equal values may be shown once.
# B1: Loqs-PD (Loquacious isoform D), full length (natural protein, Drosophila melanogaster, UniProt Q9VJY9-4 1-359, looked up)
# chain: MDQENFHGSSLPQQLQNLHIQPQQASPNPVQTGFAPRRHYNNLVGLGNGNAVSGSPVKGAPLGQRHVKLKKEKISAQVAQLSQPGQLQLSDVGDPALAGGSGLQGGVGLMGVILPSDEALKFVSETDANGLAMKTPVSILQELLSRRGITPGYELVQIEGAIHEPTFRFRVSFKDKDTPFTAMGAGRSKKEAKHAAARALIDKLIGAQLPESPSSSAGPSVTGLTVAGSGGDGNANATGGGDASDKTVGNPIGWLQEMCMQRRWPPPSYETETEVGLPHERLFTIACSILNYREMGKGKSKKIAKRLAAHRMWMRLQETPIDSGKISDSICGELEGEVSIIQDIDRYEQVSKDFEFIKI
# notes: Only a small segment of the C-terminus is seen in the maps; also called Loqs isoform D; source: Escherichia coli BL21 (DE3), purified (Ni-NTA, ULP1 cleavage, second Ni-NTA, SEC)
# B2: DmDcr-2 mutant (D1217N/D1476N, DmDcr-2^DDNN) (enzyme, Drosophila melanogaster, UniProt A1ZAW0 1-1722, looked up)
# chain: MEDVEIKPRGYQLRLVDHLTKSNGIVYLPTGSGKTFVAILVLKRFSQDFDKPIESGGKRALFMCNTVELARQQAMAVRRCTNFKVGFYVGEQGVDDWTRGMWSDEIKKNQVLVGTAQVFLDMVTQTYVALSSLSVVIIDECHHGTGHHPFREFMRLFTIANQTKLPRVVGLTGVLIKGNEITNVATKLKELEITYRGNIITVSDTKEMENVMLYATKPTEVMVSFPHQEQVLTVTRLISAEIEKFYVSLDLMNIGVQPIRRSKSLQCLRDPSKKSFVKQLFNDFLYQMKEYGIYAASIAIISLIVEFDIKRRQAETLSVKLMHRTALTLCEKIRHLLVQKLQDMTYDDDDDNVNTEEVIMNFSTPKVQRFLMSLKVSFADKDPKDICCLVFVERRYTCKCIYGLLLNYIQSTPELRNVLTPQFMVGRNNISPDFESVLERKWQKSAIQQFRDGNANLMICSSVLEEGIDVQACNHVFILDPVKTFNMYVQSKGRARTTEAKFVLFTADKEREKTIQQIYQYRKAHNDIAEYLKDRVLEKTEPELYEIKGHFQDDIDPFTNENGAVLLPNNALAILHRYCQTIPTDAFGFVIPWFHVLQEDERDRIFGVSAKGKHVISINMPVNCMLRDTIYSDPMDNVKTAKISAAFKACKVLYSLGELNERFVPKTLKERVASIADVHFEHWNKYGDSVTATVNKADKSKDRTYKTECPLEFYDALPRVGEICYAYEIFLEPQFESCEYTEHMYLNLQTPRNYAILLRNKLPRLAEMPLFSNQGKLHVRVANAPLEVIIQNSEQLELLHQFHGMVFRDILKIWHPFFVLDRRSKENSYLVVPLILGAGEQKCFDWELMTNFRRLPQSHGSNVQQREQQPAPRPEDFEGKIVTQWYANYDKPMLVTKVHRELTPLSYMEKNQQDKTYYEFTMSKYGNRIGDVVHKDKFMIEVRDLTEQLTFYVHNRGKFNAKSKAKMKVILIPELCFNFNFPGDLWLKLIFLPSILNRMYFLLHAEALRKRFNTYLNLHLLPFNGTDYMPRPLEIDYSLKRNVDPLGNVIPTEDIEEPKSLLEPMPTKSIEASVANLEITEFENPWQKYMEPVDLSRNLLSTYPVELDYYYHFSVGNVCEMNEMDFEDKEYWAKNQFHMPTGNIYGNRTPAKTNANVPALMPSKPTVRGKVKPLLILQKTVSKEHITPAEQGEFLAAITASSAADVFDMERLEILGNSFLKLSATLYLASKYSDWNEGTLTEVKSKLVSNRNLLFCLIDADIPKTLNTIQFTPRYTWLPPGISLPHNVLALWRENPEFAKIIGPHNLRDLALGDEESLVKGNCSDINYNRFVEGCRANGQSFYAGADFSSEVNFCVGLVTIPNKVIADTLEALLGVIVKNYGLQHAFKMLEYFKICRADIDKPLTQLLNLELGGKKMRANVNTTEIDGFLINHYYLEKNLGYTFKDRRYLLQALTHPSYPTNRITGSYQELEFIGNAILDFLISAYIFENNTKMNPGALTDLRSALVNNTTLACICVRHRLHFFILAENAKLSEIISKFVNFQESQGHRVTNYVRILLEEADVQPTPLDLDDELDMTELPHANKCISQEAEKGVPPKGEFNMSTNVDVPKALGDVLEALIAAVYLDCRDLQRTWEVIFNLFEPELQEFTRKVPINHIRQLVEHKHAKPVFSSPIVEGETVMVSCQFTCMEKTIKVYGFGSNKDQAKLSAAKHALQQLSKCDA
# notes: Dicer-2 (DmDcr-2) of Drosophila melanogaster, full length, with D1217N/D1476N (no dicing activity, helicase activity kept); also called Dicer-2; source: sf9 cells (Bac-to-Bac baculovirus), co-expressed with R2D2, purified (Ni-NTA, Hitrap Q, 2nd Ni-NTA, SEC)
# B3: 50-bp dsRNA (dsRNA)
# RNA 1: GAGACUUGGGCAAUGUGACUGCUGAUCAGCAGUCACAUUGCCCAAGUCUCUU
# RNA 2: B3 RNA 1
# B4: 19-bp dsRNA (siRNA duplex) (dsRNA)
# RNA 1: GAGACUUGGGCAAUGUGAAGU
# RNA 2: GUCACAUUGCCCAAGUCUCUU
# Tests used:
# [1] = biological target: T1, DmDcr-2^DDNN/R2D2 complex (Drosophila melanogaster, UniProt A1ZAW0 1-1722; Q9VLW8 1-311, D1217N | D1476N); experiment: SEC; purified DmDcr-2^DDNN/R2D2 and Loqs-PD mixed at a molar ratio of 1:1.5, on ice for 1 h; Superose 6 10/300 Increase in SEC buffer (100 mM NaCl, 20 mM Tris-HCl pH 8.0, 1 mM DTT); settings: both partners purified
# T1 construct: Dicer-2 (DmDcr-2) of Drosophila melanogaster, full length, with D1217N/D1476N; as m1; R2D2 of Drosophila, full length; as m2; Complex formed beforehand, to which Loqs-PD was added; also called DmDcr-2/R2D2; source: sf9 cells (Bac-to-Bac baculovirus), co-expressed, purified (Ni-NTA, Hitrap Q, 2nd Ni-NTA, SEC)
# [2] = biological target: B2; experiment: cryo-EM structure; DmDcr-2^DDNN/R2D2/Loqs-PD complex with 50-bp dsRNA 1:1, 25 °C for 2 h, diluted to 1 uM in SEC buffer with 5 mM ATP and 5 mM MgCl2; settings: both partners purified
# [3] = biological target: the molecule itself; experiment: as above
# [4] = biological target: T2, DmDcr-2 DDNN;R2D2;Loqs-PD (Drosophila melanogaster;Drosophila …, UniProt A1ZAW0;Q9VLW8;Q9VJY9-4 1-1722;1-311;1-359, D1217N;D1476N||); experiment: cryo-EM; ATP, Mg2+; Dimer state; Cryo-EM sample buffer not in material; protein SEC buffer 100 mM NaCl, 20 mM Tris-HCl pH 8.0, 1 mM DTT; oligomers formed with ATP and Mg2+; settings: protein: recombinant;recombinant;recombinant; tags: purified by Ni-NTA
# [5] = biological target: T2, DmDcr-2 DDNN;R2D2;Loqs-PD; experiment: cryo-EM; ATP, Mg2+; Trimer state (EMD-34708); Cryo-EM sample buffer not in material; protein SEC buffer 100 mM NaCl, 20 mM Tris-HCl pH 8.0, 1 mM DTT; oligomers formed with ATP and Mg2+; settings: protein: recombinant;recombinant;recombinant; tags: purified by Ni-NTA
binder,measurement,setting,value
B1,binding result,[1],binds
same,binding result,[2],binds
B2,stoichiometry N,[3],2 and 3
B3,binding result,[4],binds
B4,binding result,[5],binds
